{
  "source": "patent US8173131B2",
  "about": "“Compositions and methods for modulating RSV infection and immunity” (PerkinElmer Health Sciences, Inc., priority 2000, dated 2012)",
  "key": {"[1]": {"molecular_target": "T1, CX3CR1 (293-CX3CR1 cells) (Homo sapiens, UniProt P49238)", "T1 construct": "expressed in transfected cells", "T1 sequence (P49238 1-355)": "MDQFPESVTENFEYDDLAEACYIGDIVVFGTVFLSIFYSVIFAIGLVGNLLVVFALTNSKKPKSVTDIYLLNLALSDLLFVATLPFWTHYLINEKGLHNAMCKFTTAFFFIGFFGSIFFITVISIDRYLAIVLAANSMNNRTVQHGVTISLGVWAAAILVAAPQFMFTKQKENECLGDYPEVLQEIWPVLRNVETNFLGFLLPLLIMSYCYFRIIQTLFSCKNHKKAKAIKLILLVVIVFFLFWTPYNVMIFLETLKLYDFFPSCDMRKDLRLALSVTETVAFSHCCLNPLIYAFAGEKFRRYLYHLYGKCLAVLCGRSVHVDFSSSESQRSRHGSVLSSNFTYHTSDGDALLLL", "assay": "G glycoprotein and Fkn binding to 293-CX3CR1 cells by flow cytometry", "conditions": "for percent positive staining of CX3CR1-293 cells: representative experiment, FIG. 1", "protocol": "Purified G glycoprotein was examined for binding to 293-CX3CR1 cells^33. A pcDNA 3.1 plasmid containing the CX3CR1 gene and a neomycin resistance gene was used to stably transfect human embryonic kidney (HEK) cells. Neomycin resistance was used for selection and maintenance of plasmid transfection of human embryonic kidney cells.\nAll binding studies were done on ice and either G glycoprotein or human Fkn (R&D Diagnostics, Minneapolis, […]) containing 1% bovine serum albumin (Sigma) and incubated with the 293-CX3CR1 cells or 293 control cells for 30 min at 4° C. […] For inhibition studies, 100 pM-1 μM human Fkn or G glycoprotein was preincubated with the cells for 30 min at 4° C. Without washing, 100 pM of either Fkn or G glycoprotein was added and incubated for 30 min at 4° C. The cells were washed, blocked with FcγRIII blocking antibody (HB197) for 30 min on ice, washed and stained as appropriate with either an anti-G glycoprotein monoclonal antibody cocktail (132-5B, 132-5G, 130-2G, 232-IF) or a biotinylated anti-G glycoprotein monoclonal antibody cocktail (130-2G, 131-2G) or anti-Fkn monoclonal antibody (51637.11; R&D Diagnostics). Concentrations of 1 μg of anti-G glycoprotein monoclonal antibody (131-2G)^34, rabbit anti-CX3CR1 sera^33, and anti-CX3CR1 monoclonal antibody containing 10 μg/ml heparin were used in all experiments. […] Staining was detected with absorbed FITC-goat anti-mouse (H & L chain) monoclonal antibody (PharMingen, San Diego, Calif.) or streptavidin-PE (PharMingen) using flow cytometry (FACScan, Becton-Dickinson, Mountain View, Calif.). A 76 amino acid ^125I-Fkn polypeptide comprising the […] (NEN, Boston, Mass.) was used in radioligand studies^33. As a control, the void volume following purified G glycoprotein passaged over an anti-G glycoprotein antibody (130-2G) affinity column was examined by flow cytometry for binding to either 293 or 293-CX3CR1 cells.\nThe receptor for Fkn, CX3CR1, was previously identified and characterized using anti-CX3CR1 rabbit antiserum and CX3CR1-transfected human embryonic kidney cells (293-CX3CR1 cells)^33.\nThe percent Fkn-maximum binding was calculated using the equation: [% G (or Fkn) 293-CX3CR1]-[% G (or Fkn) 293]/[% Fkn (10 nM) 293-CX3CR1]-[% Fkn (10 nM) 293], where G=G glycoprotein, Fkn=fractalkine, 293-CX3CR1=CX3CR1-transfected 293, 293=untransfected 293. The concentration of G glycoprotein was estimated using a molecular weight of 90 kD."}, "[2]": {"tested_on": "bronchoalveolar leukocytes (BAL)", "assay": "BAL cell infiltration and cell types in RSV-infected mice following in vivo peptide treatment", "set-up": "species or system BALB/c mice", "conditions": "in words; for total BAL numbers compared to mice treated with RT34, Δ−1 or PBS: day 3 pi; for course of BAL numbers: from day 3 to day 14 pi", "source_text": "Total pulmonary leukocyte trafficking following treatment of mice with peptides containing a CX3C motif (RT33 and EYp1) (A) or peptides without a CX3C motif (RT34, Δ+1, Δ−1)(B).\nFlow cytometry results following treatment (d−1) of mice with PBS, RT33, RT34, Δ+1, Δ−1 and EYp1 peptides (100 μm). BAL cells were stained with antibodies against B220^+ (A, D, G), CD3^+ (B, E, H) and CD11b^+ (C, F, I) cells. Data is expressed as the total BAL cells/lung±SEM at days 3, 5, 7 and 14 post-infection. A representative experiment from 3 independent experiments is shown.\nFlow cytometry results following treatment (d−1) of mice with PBS, RT33, RT34, Δ+1, Δ−1 and EYp1 peptides (100 μm). BAL cells were stained with antibodies against NK (DX5^+) (A, C, E) and PMN (RB6-8C5^+) cells (B, D, F). Data is expressed as the total BAL cells/lung±SEM at days 3, 5, 7 and 14 post-infection. A representative experiment from 3 independent experiments is shown.\nOn day −1, prior to RSV infection, mice were i.p. treated (0.1 ml/mouse) with 100 μM of G glycoprotein peptides RT33 (CWAIC) (SEQ ID NO: 12), RT34 (lacks the CX3C motif) or peptides with changes in the CX3C motif (Δ+1, Δ−1, EYp1). Control mice were treated with PBS containing a similar dilution of DMSO used to solubilize the peptides.\nMice were anesthetized with Avertin and exsanguinated by severing the right caudal artery. Bronchoalveolar leukocyte (BAL) cells were harvested by lung lavage with PBS containing 1% bovine serum albumin (BSA, Sigma). The procedure used for extracellular staining of BAL cells was modified for microculture staining as described (55,57). Briefly, BAL cells were washed in Dulbecco's PBS (GIBCO) containing 1% bovine serum albumin (Sigma), blocked with 10% normal mouse sera diluted in PBS containing 1% bovine serum albumin, and then stained (4° C., 30 min) with an appropriate dilution of FITC-conjugated or PE-conjugated anti-CD3ε (145-2C11), anti-CD45R/B220 (RA3-6B2), anti-CD8 (Ly-2), anti-neutrophil (PMN) (RB6-8C5), anti-CD11b (M1/70) and isotype antibody controls (all from Pharmingen, San Diego, Calif.)."}, "[3]": {"molecular_target": "T2, Fkn binding to 293-CX3CR1 cells (Homo sapiens, UniProt P49238)", "T2 construct": "host or cells: HEK 293 cells stably transfected with CX3CR1"}, "[4]": {"conditions": "10 nM ligand, 293-CX3CR1 minus 293 binding relative to 10 nM Fkn"}},
  "note": "Where two headings read alike, the source gives them in different places.",
  "data": [
    {"molecule": "Fkn: CX3C chemokine fractalkine (R&D), ligand of CX3CR1 [reference compound]", "values": [
      {"measurement": "Fkn-Maximum Binding (%)", "setting": "[1]; 10 pM ligand", "result": 46, "unit": "%"},
      {"measurement": "Fkn-Maximum Binding (%)", "setting": "[1]; 100 pM ligand", "result": 98, "unit": "%"},
      {"measurement": "Fkn-Maximum Binding (%)", "setting": "[1]; 1 nM ligand", "result": 99, "unit": "%"},
      {"measurement": "Fkn-Maximum Binding (%)", "setting": "[1]; [4]", "result": 98, "unit": "%"},
      {"measurement": "percent positive staining of CX3CR1-293 cells", "setting": "[1]; 10 nM ligand", "result": 88, "unit": "%"},
      {"measurement": "concentration saturating 293-CX3CR1 binding", "setting": "[1]; 30 min at 4° C.", "result": "1 to 10", "unit": "nM"}
    ]},
    {"molecule": "TCWAIACKRIPNK [Δ + 1]", "values": [
      {"measurement": "total BAL numbers compared to mice treated with RT34, Δ−1 or PBS", "setting": "[2]", "result": "reduced BAL infiltrate"},
      {"measurement": "course of BAL numbers", "setting": "[2]", "result": "increased"}
    ]},
    {"molecule": "TCWAICKRIPNK [RT33]", "values": [
      {"measurement": "Range of Inhibition (%) of Fkn binding", "setting": "[3]; heparin 5 μg/ml + peptide 1 μM", "result": "70-80%"},
      {"measurement": "total BAL numbers compared to mice treated with RT34, Δ−1 or PBS", "setting": "[2]", "result": "reduced BAL numbers"},
      {"measurement": "numbers of BAL cell types (B220+, CD3+, CD11b+, NK, PMN)", "setting": "[2]; days 3, 5, 7 and 14 pi", "result": "reduced numbers of BAL cell types"},
      {"measurement": "course of BAL numbers", "setting": "[2]", "result": "declined"}
    ]},
    {"molecule": "G glycoprotein: purified G glycoprotein isolated from RSV/A2-infected Vero cells (protein) MSKNKDQRTAKTLERTWDTLNHLLFISSCLYKLNLKSVAQITLSILAMIISTSLIIAAIIFIASANHKVTPTTAIIQDATSQIKNTTPTYLTQNPQLGISPSNPSEITSQITTILASTTPGVKSTLQSTTVKTKNTTTTQTQPSKPTTKQRQNKPPSKPNNDFHFEVFNFVPCSICSNNPTCWAICKRIPNKKPGKKTTTKPTKKPTLKTTKKDPKPQTTKSKEVPTTKPTEEPTINTTKTNIITTLLTSNTTGNPELTSQMETFHSTSSEGNPSPSQVSTTSEYPSQPSSPPNTPRQ", "values": [
      {"measurement": "Range of Inhibition (%) of Fkn binding", "setting": "[3]; heparin 5 μg/ml + G glycoprotein 10 nM", "result": "80-85%"},
      {"measurement": "Fkn-Maximum Binding (%)", "setting": "[1]; 10 pM ligand", "result": 40, "unit": "%"},
      {"measurement": "Fkn-Maximum Binding (%)", "setting": "[1]; 100 pM ligand", "result": 80, "unit": "%"},
      {"measurement": "Fkn-Maximum Binding (%)", "setting": "[1]; 1 nM ligand", "result": 87, "unit": "%"},
      {"measurement": "Fkn-Maximum Binding (%)", "setting": "[1]; [4]", "result": 88, "unit": "%"},
      {"measurement": "percent positive staining of CX3CR1-293 cells", "setting": "[1]; 10 nM ligand", "result": 84, "unit": "%"},
      {"measurement": "binding to 293-CX3CR1 cells", "setting": "[1]; wheat germ lectin column fraction (G, F glycoprotein) or purified recombinant polyhistidine-tagged G glycoprotein", "result": 70, "unit": "%"}
    ]}
  ]
}
